Measurements as given in publication PMC3927129.

What was measured:
[1] = biological target: membranous subcomplex VO (ICL12) of the Thermus thermophilus rotary ATPase (Thermus thermophilus) (UniProt P74902); experiment: native MS
[2] = biological target: subunit L of the Thermus thermophilus rotary ATPase (L12 membrane ring) (Thermus thermophilus); experiment: native MS

| Substance | stoichiometry N [1] | stoichiometry N [2] |
| --- | --- | --- |
| peripheral stalk (subunits E and G) of the Thermus thermophilus rotary ATPase (from UniProt P74901 1-188) (complex) | 2 | – |
| subunit L of the Thermus thermophilus rotary ATPase (L12 membrane ring) (natural protein) | – | 12 |
